From article doi:10.1101/2023.07.25.550451 (bioRxiv, 2023) come the findings set out here.

Like-named read-outs stand apart in the source and are kept apart here. * marks the point of attachment. Biotin = O=C1N[C@H]2[C@H](CS[C@H]2CCCCC(=O)*)N1

Assay [1] has as its target T1, p97, wild-type, full-length (recombinant) (human, UniProt P55072 1-806). Kind of assay: pull-down.
Assay [2] addresses T1, p97, wild-type, full-length …. Kind of assay: pull-down. The source holds these as a separate data set.

T1 sequence (P55072 whole entry): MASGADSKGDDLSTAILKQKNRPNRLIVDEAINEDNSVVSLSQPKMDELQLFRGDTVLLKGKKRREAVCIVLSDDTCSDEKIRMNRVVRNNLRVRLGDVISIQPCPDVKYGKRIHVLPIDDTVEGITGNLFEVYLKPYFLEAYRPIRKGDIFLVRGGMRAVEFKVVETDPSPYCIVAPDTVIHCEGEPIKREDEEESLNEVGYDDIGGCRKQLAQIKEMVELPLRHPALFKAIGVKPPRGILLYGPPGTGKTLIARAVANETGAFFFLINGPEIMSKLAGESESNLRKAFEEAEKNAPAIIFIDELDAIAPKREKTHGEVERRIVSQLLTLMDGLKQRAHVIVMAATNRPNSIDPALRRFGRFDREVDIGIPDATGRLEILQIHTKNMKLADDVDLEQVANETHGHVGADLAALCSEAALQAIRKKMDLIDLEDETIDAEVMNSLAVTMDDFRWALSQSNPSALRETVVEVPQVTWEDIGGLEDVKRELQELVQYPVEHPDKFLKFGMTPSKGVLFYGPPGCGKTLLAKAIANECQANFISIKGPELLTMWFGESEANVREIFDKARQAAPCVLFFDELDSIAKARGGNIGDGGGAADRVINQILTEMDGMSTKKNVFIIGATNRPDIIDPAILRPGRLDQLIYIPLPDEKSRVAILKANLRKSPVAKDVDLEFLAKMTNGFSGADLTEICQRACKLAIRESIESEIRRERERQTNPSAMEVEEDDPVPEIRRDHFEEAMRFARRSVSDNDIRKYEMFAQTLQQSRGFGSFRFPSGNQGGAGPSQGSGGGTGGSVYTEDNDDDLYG

B1: GST-FAM104A isoform 1 (natural protein)
chain: not shown
With B1, the binding result in assay [1] is “binds”.

B2: GST-FAM104A isoform 2 (natural protein)
chain: not shown
B2: the binding result in assay [1] is given as “binds”.

B3: biotinylated peptide spanning the conserved C-terminal alpha-helix and flanking residues of FAM104A (C180-G203 of isoform 1) (peptide)
peptide: Biotin-CQGLYFHINQTLREAHFHSLQHRG-OH
SMILES: CC[C@H](C)[C@H](NC(=O)[C@H](Cc1c[nH]cn1)NC(=O)[C@H](Cc1ccccc1)NC(=O)[C@H](Cc1ccc(O)cc1)NC(=O)[C@H](CC(C)C)NC(=O)CNC(=O)[C@H](CCC(N)=O)NC(=O)[C@H](CS)NC(=O)CCCC[C@@H]1SC[C@@H]2NC(=O)N[C@@H]21)C(=O)N[C@@H](CC(N)=O)C(=O)N[C@@H](CCC(N)=O)C(=O)N[C@H](C(=O)N[C@@H](CC(C)C)C(=O)N[C@@H](CCCNC(=N)N)C(=O)N[C@@H](CCC(=O)O)C(=O)N[C@@H](C)C(=O)N[C@@H](Cc1c[nH]cn1)C(=O)N[C@@H](Cc1ccccc1)C(=O)N[C@@H](Cc1c[nH]cn1)C(=O)N[C@@H](CO)C(=O)N[C@@H](CC(C)C)C(=O)N[C@@H](CCC(N)=O)C(=O)N[C@@H](Cc1c[nH]cn1)C(=O)N[C@@H](CCCNC(=N)N)C(=O)NCC(=O)O)[C@@H](C)O
On to B3, for which the binding result in assay [2] was “binds”.
